Legend:
[1] = tested on: P213 MMP9-cleavable peptide, Biotin-GGGPLGVRGKGGC
[2] = tested on: P120 thrombin-cleavable peptide, Biotin-GGGSGGGSGGfPRSGGGGGC
[3] = tested on: P220 MMP9-cleavable peptide, Biotin-GGGGGGGGGGPLGVRGKGGC
[4] = tested on: P113 thrombin-cleavable peptide, Biotin-SGGfPRSGGSGGC

Chain of MMP9 (Active, Human, Recombinant, PF140, Merck Millipore) (chain, as listed by the source): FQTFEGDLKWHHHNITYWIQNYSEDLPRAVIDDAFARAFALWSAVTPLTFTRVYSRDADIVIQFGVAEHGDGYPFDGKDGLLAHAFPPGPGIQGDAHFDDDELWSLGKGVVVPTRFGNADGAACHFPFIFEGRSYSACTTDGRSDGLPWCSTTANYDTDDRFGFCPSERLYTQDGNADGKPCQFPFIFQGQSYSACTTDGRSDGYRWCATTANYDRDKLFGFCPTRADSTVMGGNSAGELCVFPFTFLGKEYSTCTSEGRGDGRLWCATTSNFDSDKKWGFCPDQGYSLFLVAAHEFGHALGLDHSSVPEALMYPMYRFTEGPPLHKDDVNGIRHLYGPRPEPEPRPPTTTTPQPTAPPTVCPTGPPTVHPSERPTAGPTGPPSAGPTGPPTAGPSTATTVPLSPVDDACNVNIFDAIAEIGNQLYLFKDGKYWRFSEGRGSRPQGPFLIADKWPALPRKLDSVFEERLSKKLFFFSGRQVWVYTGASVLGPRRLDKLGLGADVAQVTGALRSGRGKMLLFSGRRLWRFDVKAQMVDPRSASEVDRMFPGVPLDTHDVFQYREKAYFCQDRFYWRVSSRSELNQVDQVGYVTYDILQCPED
Chain of P120 thrombin-cleavable peptide, Biotin-GGGSGGGSGGfPRSGGGGGC (chain, as listed by the source): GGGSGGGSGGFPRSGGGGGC

MMP9 (Active, Human, Recombinant, PF140, Merck Millipore)
fraction of AuNCs cleaved from AuNC-P213-NAv within 1 h, FCS, 50 nM MMP9 [1]: only 20% AuNCs are cleaved from the AuNC-P213-NAv complex
rate of cleavage by FCS (linear region, 50 nM MMP9), AuNC-P213-NAv complex [1]: only 0.08% AuNC cleaved per minute
% Cleavage (free AuNC fraction: 7-12 mL), gel filtration chromatography with catalytic activity readout; AuNC-P120-NAv + MMP9 (12 h) [2]: 7.1%
% Cleavage (free AuNC fraction: 7-12 mL), gel filtration chromatography with catalytic activity readout; AuNC-P220-NAv + MMP7/9/13 (12 h) [3]: MMP9: 54.9%
% Cleavage (free AuNC fraction: 7-12 mL), gel filtration chromatography with catalytic activity readout; AuNC-P220-NAv + MMP9 (12 h) [3]: 75.1%
fraction of AuNCs cleaved from AuNC-P220-NAv within 1 h, FCS, 50 nM MMP9 [3]: 80% AuNCs are cleaved within the first hour of incubation with MMP9
rate of cleavage by FCS (linear region, 50 nM MMP9), AuNC-P220-NAv complex [3]: 3% AuNC cleaved per minute

MMP13 (Active, Human, Recombinant, 444287)
% Cleavage (free AuNC fraction: 7-12 mL), gel filtration chromatography with catalytic activity readout; AuNC-P220-NAv + MMP7/9/13 (12 h) [3]: MMP13: 29.8%

thrombin from human plasma (T7009, Sigma)
% Cleavage (free AuNC fraction: 7-12 mL), gel filtration chromatography with catalytic activity readout; AuNC-P113-NAv + THR (12 h) [4]: 21.8%
% Cleavage (free AuNC fraction: 7-12 mL), gel filtration chromatography with catalytic activity readout; AuNC-1:5-P120-NAv + THR (1 h), ca. 20 biotin ligands per AuNC [2]: 49.6%
% Cleavage (free AuNC fraction: 7-12 mL), gel filtration chromatography with catalytic activity readout; AuNC-1:20-P120-NAv + THR (1 h), ca. 5 biotin ligands per AuNC [2]: 89.9%
% Cleavage (free AuNC fraction: 7-12 mL), gel filtration chromatography with catalytic activity readout; AuNC-P120-NAv + THR (12 h) [2]: 90.2%
% Cleavage (free AuNC fraction: 7-12 mL), gel filtration chromatography with catalytic activity readout; AuNC-P220-NAv + THR (12 h) [3]: 5.5%

Reference: patent publication US20200116725
